Among the data in patent publication US20110151450 are activity (fidelity index) values, retold here.

Numbering of substitutions follows the chain as printed.

What all share (experiment): cleavage_in_vitro
In series [1] the test system is StyI-WT (Salmonella typhi). The conditions noted are these: NEB4, relative activity 25%.
The test system of series [2] is StyI-HF K75A (Salmonella typhi). The conditions noted are these: NEB4, relative activity 50%.
In series [3] the test system is T1, BsaJI-HF D200A (Bacillus stearothermophilus).
T1 sequence: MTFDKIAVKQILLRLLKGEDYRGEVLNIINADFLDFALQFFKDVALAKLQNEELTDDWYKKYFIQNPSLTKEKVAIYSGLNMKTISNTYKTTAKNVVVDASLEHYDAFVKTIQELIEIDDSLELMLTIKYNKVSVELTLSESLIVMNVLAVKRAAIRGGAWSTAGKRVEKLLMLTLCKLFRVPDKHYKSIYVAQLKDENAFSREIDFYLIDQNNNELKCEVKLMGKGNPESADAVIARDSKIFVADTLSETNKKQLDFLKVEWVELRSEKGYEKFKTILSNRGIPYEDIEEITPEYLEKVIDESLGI
To be noted: NEB4, relative activity 100%.

For series [4], the system named is BsrDI-WT (BsrDIA + BsrDIB) (Bacillus stearothermophilus). To be noted: NEB4, relative activity 25%.
The test system of series [5] is T2, BsrFI-WT (Bacillus stearothermophilus).
T2 sequence: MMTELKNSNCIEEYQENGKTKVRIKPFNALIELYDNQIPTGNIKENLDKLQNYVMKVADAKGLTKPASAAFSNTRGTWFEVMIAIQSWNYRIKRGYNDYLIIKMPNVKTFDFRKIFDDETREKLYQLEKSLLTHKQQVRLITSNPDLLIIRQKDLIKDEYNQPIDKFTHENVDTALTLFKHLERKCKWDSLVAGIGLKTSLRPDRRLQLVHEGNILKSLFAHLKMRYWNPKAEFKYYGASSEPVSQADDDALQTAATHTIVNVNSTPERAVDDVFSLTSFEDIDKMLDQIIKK
To be noted: NEB4, relative activity 50%.

The subject of series [6] is T3, BstNI-WT (Bacillus stearothermophilus).
T3 sequence: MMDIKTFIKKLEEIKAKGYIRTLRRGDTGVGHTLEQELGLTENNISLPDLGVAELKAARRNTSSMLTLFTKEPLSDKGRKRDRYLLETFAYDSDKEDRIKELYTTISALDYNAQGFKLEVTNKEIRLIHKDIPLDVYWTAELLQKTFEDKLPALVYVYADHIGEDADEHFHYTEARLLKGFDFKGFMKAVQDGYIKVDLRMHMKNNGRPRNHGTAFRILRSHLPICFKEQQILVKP
The conditions noted are these: NEB4, relative activity 50%.

Series [7] concerns T4, KasI-HF N251A (Kluyvera ascorbata).
T4 sequence: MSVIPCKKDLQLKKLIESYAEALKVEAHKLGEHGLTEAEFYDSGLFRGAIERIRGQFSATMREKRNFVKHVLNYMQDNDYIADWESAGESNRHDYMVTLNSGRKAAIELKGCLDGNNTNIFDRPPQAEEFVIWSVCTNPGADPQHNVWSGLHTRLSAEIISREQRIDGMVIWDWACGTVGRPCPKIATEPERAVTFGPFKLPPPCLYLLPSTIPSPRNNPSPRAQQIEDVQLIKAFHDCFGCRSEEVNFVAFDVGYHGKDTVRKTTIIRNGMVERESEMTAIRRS
The conditions noted are these: NEB4, relative activity 100%.

The subject of series [8] is BsrDI-HF (BsrDIA + mutant BsrDIB) Q230A/K363A (BsrDIB) (Bacillus stearothermophilus). To be noted: NEB4, relative activity 100%.
Series [9] relates to T5, AatII-HF N235A (Acetobacter aceti).
T5 sequence: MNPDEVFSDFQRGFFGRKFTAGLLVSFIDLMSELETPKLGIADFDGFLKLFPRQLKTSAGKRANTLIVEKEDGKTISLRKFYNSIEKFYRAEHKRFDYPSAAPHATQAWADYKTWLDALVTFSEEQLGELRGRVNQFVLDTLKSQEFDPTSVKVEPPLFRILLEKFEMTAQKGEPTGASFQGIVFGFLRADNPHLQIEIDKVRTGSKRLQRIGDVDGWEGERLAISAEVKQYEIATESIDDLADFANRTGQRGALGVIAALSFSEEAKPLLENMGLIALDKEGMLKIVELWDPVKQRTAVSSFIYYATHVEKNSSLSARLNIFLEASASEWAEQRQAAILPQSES
The conditions noted are these: NEB4, relative activity 100%; Table 1 lists pXba.

Series [10] relates to T6, BsaJI-WT (Bacillus stearothermophilus).
T6 sequence: T1 sequence with A200D
The conditions noted are these: NEB4, relative activity 100%.

Series [11] deals with T7, KasI-WT (Kluyvera ascorbata).
T7 sequence: T4 sequence with A251N
The conditions noted are these: NEB4, relative activity 100%.

Series [12] concerns T8, BstNI-HF G26T (Bacillus stearothermophilus).
T8 sequence: T3 sequence with G26T
To be noted: NEB4, relative activity 100%.

For series [13], the system named is T9, AatII-WT (Acetobacter aceti).
T9 sequence: T5 sequence with A235N
The conditions noted are these: NEB4, relative activity 50%.

Series [14] addresses KpnI-HF D16N/D148E (Klebsiella pneumoniae) (UniProt P25237). To be noted: NEB4, relative activity 100%.
For series [15], the target named is KpnI-WT (Klebsiella pneumoniae) (UniProt P25237). To be noted: NEB4, relative activity 50%.

For the substance lambda DNA, StyI sites, the activity (fidelity index) was determined as 16 in series [1] and 4000 in series [2].

Take pBR322 plasmid: the activity (fidelity index) in series [3] was above 4000; in series [4], 0.5; in series [5] it was 16; in [6] it was 4; in series [7], above 16000; in [8], above 1000. Also, the activity (fidelity index) is above 1000 in [9]; 64 in series [10]; 4 in series [11]; 500 in series [12]; 16 in series [13].

For the substance pXba plasmid, KpnI sites, the activity (fidelity index) in series [14] is above 1e+06; in series [15], 4.
